Values of other authors, collected in patent US20220259272A1, “PHOTOACTIVE COMPOSITIONS FOR T[…] DELIVERY” (The University of North Carolina at Chapel Hill, priority 2019, published 2022).

Key:
[1] = 1 mg/kg, up to 100 mg
[2] = in vivo
[3] = in vivo; remark: listed apart in the source

tPA: enzyme that activates plasminogen to generate plasmin, which dissolves the clot
catastrophic intracerebral hemorrhage, share of patients [1]: ~10% | circulatory lifetime [2]: 5 min

TF: protein that promotes blood clotting in the cascade activating thrombin
circulatory half-life [3]: < 1 min
